Assay results as given in paper PMC10415141.

Tests used:
MCM8;MCM9 680 = MCM8;MCM9 680 (Homo sapiens;Homo sapiens, UniProt Q9UJA3;Q9NXL9 1-840;1-680, |); assay: S1 nuclease protection
MCM8 WB;MCM9 680 WB = MCM8 WB;MCM9 680 WB (Homo sapiens;Homo sapiens, UniProt Q9UJA3;Q9NXL9 1-840;1-680, E519Q|E415Q); assay: S1 nuclease protection
Chain of MCM8 WB;MCM9 680 WB (Q9UJA3 whole entry E519Q, chain 1 of 2): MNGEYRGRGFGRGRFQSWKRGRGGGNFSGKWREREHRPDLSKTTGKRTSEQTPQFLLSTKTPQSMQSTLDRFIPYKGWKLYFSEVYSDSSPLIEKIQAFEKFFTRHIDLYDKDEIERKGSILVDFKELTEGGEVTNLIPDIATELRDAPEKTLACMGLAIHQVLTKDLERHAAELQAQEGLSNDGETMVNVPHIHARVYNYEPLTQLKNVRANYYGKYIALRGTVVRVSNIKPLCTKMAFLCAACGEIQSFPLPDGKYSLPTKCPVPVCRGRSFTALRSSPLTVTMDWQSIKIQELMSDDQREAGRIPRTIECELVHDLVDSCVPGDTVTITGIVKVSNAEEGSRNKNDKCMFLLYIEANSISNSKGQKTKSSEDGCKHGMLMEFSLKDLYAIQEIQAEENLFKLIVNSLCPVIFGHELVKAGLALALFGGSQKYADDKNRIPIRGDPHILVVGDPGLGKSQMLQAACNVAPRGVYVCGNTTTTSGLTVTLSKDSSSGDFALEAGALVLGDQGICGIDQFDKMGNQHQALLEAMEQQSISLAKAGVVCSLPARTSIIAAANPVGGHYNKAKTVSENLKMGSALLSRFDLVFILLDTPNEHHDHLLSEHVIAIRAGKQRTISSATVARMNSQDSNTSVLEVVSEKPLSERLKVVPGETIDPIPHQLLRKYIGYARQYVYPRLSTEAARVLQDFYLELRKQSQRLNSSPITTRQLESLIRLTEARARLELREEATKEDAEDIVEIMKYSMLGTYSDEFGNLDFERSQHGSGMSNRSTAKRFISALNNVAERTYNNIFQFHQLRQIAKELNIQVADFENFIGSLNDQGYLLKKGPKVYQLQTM
Chain of MCM8 WB;MCM9 680 WB (Q9NXL9 1-680 E415Q, chain 2 of 2): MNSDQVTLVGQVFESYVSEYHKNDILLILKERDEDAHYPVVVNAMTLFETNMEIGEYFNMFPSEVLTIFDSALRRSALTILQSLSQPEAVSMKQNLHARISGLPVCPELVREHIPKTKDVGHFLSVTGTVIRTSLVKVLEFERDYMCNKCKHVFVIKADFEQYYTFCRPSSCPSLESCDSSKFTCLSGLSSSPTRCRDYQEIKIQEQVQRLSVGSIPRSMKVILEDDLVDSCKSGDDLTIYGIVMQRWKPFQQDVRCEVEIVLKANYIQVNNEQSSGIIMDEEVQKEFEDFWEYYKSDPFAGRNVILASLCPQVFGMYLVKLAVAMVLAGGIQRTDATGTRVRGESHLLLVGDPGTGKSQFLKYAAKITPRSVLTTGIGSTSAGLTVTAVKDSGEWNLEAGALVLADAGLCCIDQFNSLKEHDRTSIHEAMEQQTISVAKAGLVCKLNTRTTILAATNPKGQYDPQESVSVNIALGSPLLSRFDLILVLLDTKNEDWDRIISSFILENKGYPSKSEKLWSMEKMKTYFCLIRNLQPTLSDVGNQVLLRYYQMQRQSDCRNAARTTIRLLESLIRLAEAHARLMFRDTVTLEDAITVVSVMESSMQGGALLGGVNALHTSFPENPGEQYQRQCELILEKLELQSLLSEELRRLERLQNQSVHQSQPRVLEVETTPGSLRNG

Chain of MCM8;MCM9 680 (Q9UJA3 whole entry, chain 1 of 2): as the sequence (Q9UJA3 whole entry E519Q, chain 1 of 2) above, with Q519E counted along it
Chain of MCM8;MCM9 680 (Q9NXL9 1-680, chain 2 of 2): as the sequence (Q9NXL9 1-680 E415Q, chain 2 of 2) above, with Q415E counted along it

B1: 3' long arm fork (DNA228/15Cy3) (mixed)
DNA 1: TTTTTTTTTTGCCGGTCGGGGTGGGTGGGAAGCGTAGGGAGAGGTG
DNA 2: CACCTCTCCCTACGCTTCCCACCCACCCCGACCGGCATCTGCTATGGTACGCTGAGCGAGAGTAGC
MCM8;MCM9 680
  binding result: binds
MCM8 WB;MCM9 680 WB
  binding result: binds
